Four molecules from patent US20220204626A1 (REMEGEN, published 2022) can be followed below.

For experiment [1], the target named is T1, TGF-β1 (UniProt P01137 279-390, limits assumed). In words: ELISA on coated TGF-β1, ratio of EC50 values against TGF-β-R-His. The text has this:
(§1) (11) Reading: The absorbance values were read at 450/655 nm respectively using the MD microplate reader. The concentration of the sample to be tested was used as the abscissa and the absorbance value as the ordinate to plot making a 4-PL curve, and the software automatically gave the EC50 value. (see table 7).

In experiment [2] the target is T1, TGF-β1. In words: ELISA, TGF-β1 coated at 2 µg/ml, detection with goat anti-human Fc-HRP.
Source text: as §1

Another experiment concerns the target VEGF (UniProt P15692-4 27-191, limits assumed). The experiment in a line: ELISA, VEGF coated at 1 µg/ml, detection with anti-His-HRP.
Source text: as §1

For a further experiment, the target named is T2, CTLA-4 Protein (UniProt P16410 36-161, limits assumed).
T2 sequence (looked up): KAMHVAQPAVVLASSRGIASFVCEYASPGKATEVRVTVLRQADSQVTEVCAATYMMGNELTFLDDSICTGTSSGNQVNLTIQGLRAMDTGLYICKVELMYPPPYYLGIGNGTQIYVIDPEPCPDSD
In words: ELISA, CTLA-4 Protein coated at 20 µg/ml, biotinylated sample, detection with streptavidin-HRP. The protocol: Hib-PDC sample well and CD80-His well: Streptavidin-HRP was diluted at 1:2000, and added at 100 μl/well. Then the plate was incubated at 37° C. for 1 h±10 min;
as §1

For experiment [3], the target named is T1, TGF-β1. The experiment in a line: ELISA, TGF-β1 coated at 2 µg/ml, detection with anti-His-HRP.
Source text: as §1

T1 sequence (P01137 279-390 limits assumed): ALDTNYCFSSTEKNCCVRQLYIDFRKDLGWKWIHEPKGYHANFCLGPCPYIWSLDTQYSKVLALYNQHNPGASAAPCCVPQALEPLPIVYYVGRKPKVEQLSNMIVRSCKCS
VEGF, sequence (P15692 other isoform, or with tags, fused parts or gaps limits assumed): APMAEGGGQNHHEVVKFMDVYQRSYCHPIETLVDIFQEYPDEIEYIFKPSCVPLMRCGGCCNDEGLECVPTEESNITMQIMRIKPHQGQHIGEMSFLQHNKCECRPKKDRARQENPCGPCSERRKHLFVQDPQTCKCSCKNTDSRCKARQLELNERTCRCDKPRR

B1: Hib-PLT (bispecific antibody)
heavy: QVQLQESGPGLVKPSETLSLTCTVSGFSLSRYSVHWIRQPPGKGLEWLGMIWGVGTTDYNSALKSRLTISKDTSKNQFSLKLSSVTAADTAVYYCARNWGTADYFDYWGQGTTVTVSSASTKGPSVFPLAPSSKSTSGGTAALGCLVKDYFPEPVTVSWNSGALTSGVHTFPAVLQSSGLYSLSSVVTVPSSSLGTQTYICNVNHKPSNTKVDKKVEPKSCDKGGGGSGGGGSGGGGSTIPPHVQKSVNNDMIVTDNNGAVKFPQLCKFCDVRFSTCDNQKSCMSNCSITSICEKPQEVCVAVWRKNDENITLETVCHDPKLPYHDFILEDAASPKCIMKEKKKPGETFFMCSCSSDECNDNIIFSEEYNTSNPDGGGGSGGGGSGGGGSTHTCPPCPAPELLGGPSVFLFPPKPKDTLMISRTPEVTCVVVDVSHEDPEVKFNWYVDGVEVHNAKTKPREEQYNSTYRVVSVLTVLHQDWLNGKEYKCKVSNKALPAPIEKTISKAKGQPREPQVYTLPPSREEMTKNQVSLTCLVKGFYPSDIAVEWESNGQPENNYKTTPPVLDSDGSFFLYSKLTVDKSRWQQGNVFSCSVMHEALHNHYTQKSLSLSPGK
light: DIVLTQSPASLAVSPGQRATITCRASKSVHTSGYSYMHWYQQKPGQPPKLLIYLASNLESGVPARFSGSGSGTDFTLTINPVEANDTANYYCQHSGELPYTFGGGTKVEIKRTVAAPSVFIFPPSDEQLKSGTASVVCLLNNFYPREAKVQWKVDNALQSGNSQESVTEQDSKDSTYSLSSTLTLSKADYEKHKVYACEVTHQGLSSPVTKSFNRGEC
notes: also called fusion protein Hib-PLT; Hibody bispecific fusion protein Hib-PLT
In the case of B1, the “fold better binding activity than TGF-β receptor monomer” value in the experiment with TGF-β1 [1] was about 70 times. The EC50 with TGF-β1 [2] was 0.164 nM.

B2: VEGF-R-His (receptor)
chain: GRPFVEMYSEIPEIIHMTEGRELVIPCRVTSPNITVTLKKFPLDTLIPDGKRIIWDSRKGFIISNATYKEIGLLTCEATVNGHLYKTNYLTHRQTNTIIDVVLSPSHGIELSVGEKLVLNCTARTELNVGIDFNWEYPSSKHQHKKLVNRDLKTQSGSEMKKFLSTLTIDGVTRSDQGLYTCAASSGLMTKKNSTFVRVHEP
notes: The His tag is set after the fragment only by default; also called VEGF receptor monomer; not shown: His tag
For the molecule B2, in the experiment with VEGF, the response was half-maximal at 2150 nM (EC50). This counts as single-digit micromolar.

B3: CD80-His (ligand)
chain: VIHVTKEVKEVATLSCGHNVSVEELAQTRIYWQKEKKMVLTMMSGDMNIWPEYKNRTIFDITNNLSIVILALRPSDEGTYECVVLKYEKDAFKREHLAEVTLSVKADFPTPSISDFEIPTSNIRRIICSTSGGFPEPHLSWLENGEELNAINTTVSQDPETELYAVSSKLDFNMTTNHSFMCLIKYGHLRVNQTFNWN
modifications: biotinylated sample in the assay (sites not given)
notes: The His tag is set after the fragment only by default; also called CD80 monomer; His-tagged CD80 fragment; not shown: His tag
Molecule B3 registered an EC50 with CTLA-4 Protein of 50.7 nM. That is a double-digit nanomolar value.

B4: TGF-β-R-His (receptor)
chain: TIPPHVQKSVNNDMIVTDNNGAVKFPQLCKFCDVRFSTCDNQKSCMSNCSITSICEKPQEVCVAVWRKNDENITLETVCHDPKLPYHDFILEDAASPKCIMKEKKKPGETFFMCSCSSDECNDNIIFSEEYNTSNPD
notes: The His tag is set after the fragment only by default; also called TGF-β receptor monomer; His-tagged TGF-βRII extracellular region fragment; not shown: His tag
For the molecule B4, the EC50 in the experiment with TGF-β1 [3] was 11.6 nM.
